How the values were obtained:
[1] = tested on: GFP-14-3-3β and its binding proteins; test: GFP-14-3-3β co-IP with LC-MS/MS label-free quantification, untreated versus PP1c-treated; design: species or system human; conditions: PP1 vs untreated; label-free quantification
GFP-14-3-3β = GFP-14-3-3β co-IP with LC-MS/MS, untreated GFP-14-3-3β versus GFP control (14-3-3 interactome); assay type: binding, human; conditions: untreated vs GFP; label-free quantification

Difference (log2), PP1 vs untreated [1]	Molecule	Difference (log2), untreated vs GFP (GFP-14-3-3β)
0.9262 log2	VDAC2 (protein, UniProt P45880 2-294, looked up) Non-selective voltage-gated …: ATHGQTCARPMCIPPSYADLGKAARDIFNKGFGFGLVKLDVKTKSCSGVEFSTSGSSNTDTGKVTGTLETKYKWCEYGLTFTEKWNTDNTLGTEIAIEDQICQGLKLTFDTTFSPNTGKKSGKIKSSYKRECINLGCDVDFDFAGPAIHGSAVFGYEGWLAGYQMTFDSAKSKLTRNNFAVGYRTGDFQLHTNVNDGTEFGGSIYQKVCEDLDTSVNLAWTSGTNCTRFGIAAKYQLDPTASISAKVNNSSLIGVGYTQTLRPGVKLTLSALVDGKSINAGGHKVGLALELEA	2.092 log2
0.9083 log2	SRPR (protein, UniProt P08240 1-638, looked up) Signal recognition particle …: MLDFFTIFSKGGLVLWCFQGVSDSCTGPVNALIRSVLLQERGGNNSFTHEALTLKYKLDNQFELVFVVGFQKILTLTYVDKLIDDVHRLFRDKYRTEIQQQSALSLLNGTFDFQNDFLRLLREAEESSKIRAPTTMKKFEDSEKAKKPVRSMIETRGEKPKEKAKNSKKKGAKKEGSDGPLATSKPVPAEKSGLPVGPENGVELSKEELIRRKREEFIQKHGRGMEKSNKSTKSDAPKEKGKKAPRVWELGGCANKEVLDYSTPTTNGTPEAALSEDINLIRGTGSGGQLQDLDCSSSDDEGAAQNSTKPSATKGTLGGMFGMLKGLVGSKSLSREDMESVLDKMRDHLIAKNVAADIAVQLCESVANKLEGKVMGTFSTVTSTVKQALQESLVQILQPQRRVDMLRDIMDAQRRQRPYVVTFCGVNGVGKSTNLAKISFWLLENGFSVLIAACDTFRAGAVEQLRTHTRRLSALHPPEKHGGRTMVQLFEKGYGKDAAGIAMEAIAFARNQGFDVVLVDTAGRMQDNAPLMTALAKLITVNTPDLVLFVGEALVGNEAVDQLVKFNRALADHSMAQTPRLIDGIVLTKFDTIDDKVGAAISMTYITSKPIVFVGTGQTYCDLRSLNAKAVVAALMKA	-0.7055 log2
0.8935 log2	TMCO1 (protein, UniProt Q9UM00 1-239, looked up) Calcium load-activated …: MPRKRKCDLRAVRVGLLLGGGGVYGSRFRFTFPGCRALSPWRVRVQRRRCEMSTMFADTLLIVFISVCTALLAEGITWVLVYRTDKYKRLKAEVEKQSKKLEKKKETITESAGRQQKKKIERQEEKLKNNNRDLSMVRMKSMFAIGFCFTALMGMFNSIFDGRVVAKLPFTPLSYIQGLSHRNLLGDDTTDCSFIFLYILCTMSIRQNIQKILGLAPSRAATKQAGGFLGPPPPSGKFS	2.261 log2
0.914 log2	DPM1 (protein, UniProt O60762 2-260, looked up) Dolichol-phosphate …: ASLEVSRSPRRSRRELEVRSPRQNKYSVLLPTYNERENLPLIVWLLVKSFSESGINYEIIIIDDGSPDGTRDVAEQLEKIYGSDRILLRPREKKLGLGTAYIHGMKHATGNYIIIMDADLSHHPKFIPEFIRKQKEGNFDIVSGTRYKGNGGVYGWDLKRKIISRGANFLTQILLRPGASDLTGSFRLYRKEVLEKLIEKCVSKGYVFQMEMIVRARQLNYTIGEVPISFVDRVYGESKLGGNEIVSFLKGLLTLFATT	1.004 log2
